Measurements from the supplement of paper PMC9170038.

Tested on: MS2 coat protein
Assay: apparent KD of MS2 coat protein; higher = weaker reporter binding
Conditions: Eterna round: R107
How it was run: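 Designed RNA switches were transcribed on-chip from Illumina sequencing clusters. They were then titrated with SNAP-549-labelled MS2 coat protein (twofold steps, 0.7 or 1.5 nM to 3 µM; 0.8–1.5 h to 10–20 min per step) in 100 mM Tris-HCl pH 7.5, 80 mM KCl, 4 mM MgCl2, without or with constant ligand. Apparent KD is the per-design median of normalised cluster binding-curve fits.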

[1] = input ligand: theophylline 20 uM
[2] = input ligand: theophylline 2 mM
[3] = input ligand: tryptophan 2.4 mM

Sequence	apparent KD of MS2 coat protein (input ligand: arginine 13.2 mM) [µM]	apparent KD of MS2 coat protein (input ligand: none) [µM]	apparent KD of MS2 coat protein [1] [µM]	apparent KD of MS2 coat protein [2] [µM]	apparent KD of MS2 coat protein [3] [µM]
AGGUGGCGCGGAAGGAGCGAGUUUGCCUAUUACAUGAGGAUCACCCAUGUGGGUAAUGGGACUCAGGUAGGUCGCCGUUGUCGCU [Same State Arginine B GF 27]	0.0356	0.0479	0.0915	0.0688	0.0615
AGGUGGGUCUGAAGGAGCGCGAUAACAUGAGGAUCACCCAUGUUAAAUGGUACAUGAUACUCGCAGGUAGGUCGCAGUAAAACCA [Same State Arginine B GF 12]	0.025	0.0844	0.0731	0.0938	0.0531
AGUAAUCUAUCAGAUACCAGACCCUCUUUAACAUGAGGAUCACCCAUGUCUAUGUUCUACGUCCCUUGGCAGCUGUAAAUGAUAA [JR_SSTheophyB_Sub002]	0.0349	–	0.08	–	0.0577
AGUCUUAAUGGAAGGAGCGCAGUCAUAACAUGAGGAUCACCCAUGUCGAGGUGAGGGUCAUUGCAGGUAGGUCGCCAUACUAAGA [Same State - Arginine B (Freestyle 3)]	0.125	0.199	0.22	0.265	0.245
AGUGACUACAUCUGGAAUUAAGGUAGGGAAGGAGCGCGGUAAGACGCAGGUAGGUCGCCCUACAUGAGGAUCACCCAUGUGAUGU [XARG-A 28]	0.0755	0.354	0.264	0.331	0.232
AGUGGGUGUUAUGAUACCAGCGUAAUACACAACAUGAGGAUCACCCAUGUGGAGCCUCGCCGCCCUUGGCAGCAUUGGGCCCGCA [theeternabot_sameState_MS2_Theo_B_4]	0.115	–	0.237	–	0.223
AUAAAUAAUAAAUAUAAUAAAGUGGGUGAACGAGGACCGGUACGGCCGCCACUCGGACAUGAGGAUCACCCAUGUCCAUGUGAAA [AstrosExtTry#3]	0.00994	0.0173	0.0191	0.0193	0.0401
AUAACAGUGUCGGCCGCCACUAGAACACAUGAGGAUCACCCAUGUGGUGGUACCUCCUAAGACGAUAGGACCGGGACCCAUCUAC [theeternabot_exclusion_MS2_Trp_B_12]	0.0504	–	0.108	0.143	–
AUACAUGAGGAUCACCCAUGUCAUUCAGAAGGAGCGUCAUUUUAGACAGGUAGGUCGCUGAUAGUAUUUUUAUACUUUAUGUUUA [JR_SSArginiA_Sub015]	0.0195	0.0203	0.0293	0.0233	0.0216
AUAUAUACAUGAGGAUCACCCAUGUUAUUUCGAGGACCGGUACGGCCGCCACUCGAUAGAGUAGAAGUAAAUUUUAAUUCAUGUA [JR_SSTryptoA_Sub008]	0.0139	–	0.0187	0.0168	–
AUAUAUAUAUAGAAAUAUAUAUAUAUGUAACGAGGACCGGUACGGCCGCCACUCGUGCCGGUGAUAACAUGAGGAUCACCCAUGU [Ex_TrypA - Every engine approves!]	0.0198	0.016	0.0209	0.0203	0.02
AUAUCUUCCACGGCCGCCACUGAAUGGUGCCCAAGGUCGAUCGCAGACAUGAGGAUCACCCAUGUCAGGACCGGGUGGUACUACG [theeternabot_exclusion_MS2_Trp_B_23]	0.0161	–	0.0165	0.0157	–
AUAUGAUCAUACGAUACCAGAAAUGGUAUUCCUUUAUUUCUUACAUGAGGAUCACCCAUGUUCCCUUGGCAGCGUAUGAUCAUAU [ETHB #3]	0.125	–	0.327	–	0.303
AUAUUAGACCUGGAUACCAGCGACAUGAGGAUCACCCAUGUAUGUGCAUCUGCCAUGAUAUGCCCUUGGCAGCCACCGAGGUCGU [CZZMULLIN]	0.0124	–	0.016	–	0.0108
AUCCACAGCCGAAGGAGCGCAGUAGGAUGACAUGAGGAUCACCCAUGUGUGUGAUGUGGAUUGCAGGUAGGUCGCGGAGUGGAUU [Exclusion - Arginine B (Freestyle 9)]	0.165	0.0545	0.082	0.0601	0.0464
AUGACUUACGGGCGCCAUUUGUAAUAGGAAGGAGCGGCGAGAUAGCCAGGUAGGUCGCCUAUACAUGAGGAUCACCCAUGUCACC [Vegeorbe]	0.0668	0.12	0.103	0.0818	0.112
AUGCACCUCGUCCAGGCAAUCUUUAGUGAUACCAGCUAACUCCUUGGCCCUUGGCAGCACAUGAGGAUCACCCAUGUGCGACAUC [Tidile]	0.0111	–	0.0149	–	0.0139
AUGCAUAGCACGGCCGCCACUCCAUGUAAACAUGAGGAUCACCCAUGUAAUUUGGAUGUUUUAUAGAGGACCGGGUGAAAUGCAA [JR_ExcTryptoB_Sub004]	0.00842	–	0.0101	0.0103	–
AUGCAUAGCGGAAGGAGCGCAAUAGAAUGACAUGAGGAUCACCCAUGUGUGUGAUGUGGGUUGCAGGUAGGUCGCCGAGUGGCAU [#11 Exclusion - Arginine B]	0.0776	0.0809	0.0959	0.127	0.0591
AUGCCUAGUGGAAGGAGCGAGGGUCUUCUCAACAUGAGGAUCACCCAUGUUCUUUUAUACCCUCAGGUAGGUCGCCAUUGGGACA [Anenre]	0.0277	0.0288	0.0336	0.0257	0.0348
AUGGAGACCUCGGCCGCCACUCUCCAUGAGGAUCUCCCAUGUAACAUGAGGAUCACCCAUGUGCUGAGGACCGGGAGGUCCUGAA [Same State Tryptophan B GF 18]	0.0092	–	0.0158	0.0125	–
AUUAAUUUAUUUCUCAAUUUAAUUUCAGAAGGAGCGUGAUGUUUCACAGGUAGGUCGCUGUUUACAUGAGGAUCACCCAUGUUUU [JR_SSArginiA_Sub004]	0.032	0.0402	0.0444	0.0404	0.0318
AUUACAUGAGCAUCAGCACAUGAGGAUCACCGAGGACCGGUACGGCCGCCACUCGACACAUGAGGAUCACCCAUGUGUUGUUGUU [Exclusion Tryptophan A 3]	0.0246	–	0.345	0.281	–
AUUACAUGGAUUACAACUAAAUCAACUGAAGGAGCGUGAAGGAUCACAGGUAGGUCGCAGUACAUGAGGAUCACCCAUGUUAUAA [JR_Nu_SSArginiA_Sub021]	0.0344	0.034	0.0485	0.0459	0.0396
AUUAUCGUAGGUUAAAGUUUAGAAACUGAAGGAGCGUGGUAUUACACAGGUAGGUCGCAGAUUUUACAUGAGGAUCACCCAUGUU [JR_ExcArginiA_Sub010]	0.0213	0.0224	0.0263	0.0251	0.0215
AUUGUCAAGUCGGCCGCCACUUCUGCCAUGGCCACCAGUCGACAUGAGGAUCACCCAUGUCUCUUAAGGACCGGGACUUUCAAUU [theeternabot_sameState_MS2_Trp_B_6]	0.0131	–	0.016	0.0139	–
AUUUUCAUGGUCAUAUAUAUAUCUUCAGAUACCAGACUAUAUUAAGUCCCUUGGCAGCUGUUACAUGAGGAUCACCCAUGUUAUA [JR_ExcTheophyA_Sub013]	0.0401	–	0.0653	–	0.078
